According to patent US20180011085A1:

Molecular target: purified recombinant M1 protein from influenza virus labeled with His-tag (influenza virus)
Assay: Western blot of 0.1-10 ng M1-HisTag, HRP-conjugated antibody 1:2000, chemiluminescence

Substance: antibody against His-tag conjugated with horseradish peroxidase (Sigma, #A7058-1VL)
- limit of detection: 500 pg
